Literature values, collected in paper PMC8044391.

Target: ICAM-1 (Homo sapiens) (UniProt P05362)
Sequence (P05362 28-480): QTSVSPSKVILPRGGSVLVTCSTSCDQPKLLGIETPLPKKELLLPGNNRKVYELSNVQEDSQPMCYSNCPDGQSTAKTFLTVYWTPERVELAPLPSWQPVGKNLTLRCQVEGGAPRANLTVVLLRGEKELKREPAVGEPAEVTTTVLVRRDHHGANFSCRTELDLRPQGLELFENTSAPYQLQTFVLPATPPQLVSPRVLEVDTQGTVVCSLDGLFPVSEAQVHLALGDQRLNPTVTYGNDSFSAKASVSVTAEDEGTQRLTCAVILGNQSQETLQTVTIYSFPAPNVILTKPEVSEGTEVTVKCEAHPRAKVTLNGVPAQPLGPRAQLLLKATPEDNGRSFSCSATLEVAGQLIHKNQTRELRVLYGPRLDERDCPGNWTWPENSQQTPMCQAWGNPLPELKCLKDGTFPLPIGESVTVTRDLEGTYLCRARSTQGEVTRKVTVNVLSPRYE

Chain of integrin αLβ2 (P20701 26-1090): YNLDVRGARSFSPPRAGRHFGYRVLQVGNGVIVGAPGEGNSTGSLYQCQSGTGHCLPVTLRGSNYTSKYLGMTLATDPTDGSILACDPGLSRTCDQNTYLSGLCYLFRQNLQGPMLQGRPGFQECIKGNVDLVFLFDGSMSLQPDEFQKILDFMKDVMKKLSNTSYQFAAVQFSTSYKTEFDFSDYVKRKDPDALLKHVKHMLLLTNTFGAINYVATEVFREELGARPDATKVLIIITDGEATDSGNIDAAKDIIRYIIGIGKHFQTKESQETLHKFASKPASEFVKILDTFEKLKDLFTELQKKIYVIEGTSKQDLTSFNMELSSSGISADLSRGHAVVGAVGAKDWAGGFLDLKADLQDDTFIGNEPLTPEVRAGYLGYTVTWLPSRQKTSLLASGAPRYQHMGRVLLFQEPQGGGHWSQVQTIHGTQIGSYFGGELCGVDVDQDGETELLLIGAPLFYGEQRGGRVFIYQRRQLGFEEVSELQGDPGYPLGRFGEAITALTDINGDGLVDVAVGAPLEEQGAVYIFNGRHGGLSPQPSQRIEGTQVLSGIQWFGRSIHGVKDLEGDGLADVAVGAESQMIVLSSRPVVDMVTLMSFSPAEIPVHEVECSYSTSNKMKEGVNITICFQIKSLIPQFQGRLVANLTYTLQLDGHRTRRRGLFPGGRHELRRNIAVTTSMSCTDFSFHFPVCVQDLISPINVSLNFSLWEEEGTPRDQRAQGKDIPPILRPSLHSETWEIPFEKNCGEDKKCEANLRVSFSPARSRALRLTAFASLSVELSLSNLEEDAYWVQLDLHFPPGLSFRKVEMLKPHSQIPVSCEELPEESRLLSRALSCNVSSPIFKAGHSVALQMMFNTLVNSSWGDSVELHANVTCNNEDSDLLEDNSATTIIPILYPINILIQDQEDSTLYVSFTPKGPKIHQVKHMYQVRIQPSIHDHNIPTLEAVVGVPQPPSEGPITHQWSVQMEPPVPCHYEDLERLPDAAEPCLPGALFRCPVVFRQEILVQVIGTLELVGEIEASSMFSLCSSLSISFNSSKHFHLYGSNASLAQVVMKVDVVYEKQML
Chain of integrin αLβ2 (P05107 23-700, further chain): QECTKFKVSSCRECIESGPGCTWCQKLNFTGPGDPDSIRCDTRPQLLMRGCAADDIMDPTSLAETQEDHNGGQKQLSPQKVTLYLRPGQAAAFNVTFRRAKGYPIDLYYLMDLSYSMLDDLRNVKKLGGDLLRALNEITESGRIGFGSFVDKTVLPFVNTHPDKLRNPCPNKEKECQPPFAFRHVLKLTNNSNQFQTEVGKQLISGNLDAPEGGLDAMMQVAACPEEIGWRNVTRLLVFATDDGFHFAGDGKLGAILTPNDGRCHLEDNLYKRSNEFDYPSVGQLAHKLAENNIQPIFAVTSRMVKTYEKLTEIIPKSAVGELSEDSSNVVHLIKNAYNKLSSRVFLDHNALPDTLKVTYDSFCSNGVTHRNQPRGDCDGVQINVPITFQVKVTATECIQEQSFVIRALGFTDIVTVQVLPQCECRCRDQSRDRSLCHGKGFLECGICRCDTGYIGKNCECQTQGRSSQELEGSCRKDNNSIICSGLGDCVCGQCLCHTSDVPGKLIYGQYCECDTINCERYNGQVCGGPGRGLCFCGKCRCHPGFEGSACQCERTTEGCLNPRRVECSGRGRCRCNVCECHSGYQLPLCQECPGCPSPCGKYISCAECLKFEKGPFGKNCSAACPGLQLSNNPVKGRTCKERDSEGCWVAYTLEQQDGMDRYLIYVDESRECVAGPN

integrin αLβ2 (from UniProt P20701)
Kd: 26 µM
